What was measured:
Assay in all cases: holdup assay
Design in all cases: key: below the threshold = too weak to quantify, mostly under pKd 3.1 to 4
[1] = target: T1, GRIP1_3, Q9Y3R0
T1 sequence (Q9Y3R0 247-346, limits assumed, looked up): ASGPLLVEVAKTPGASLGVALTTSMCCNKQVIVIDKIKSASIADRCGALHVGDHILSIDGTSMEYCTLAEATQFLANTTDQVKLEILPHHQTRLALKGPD

[2] = target: T2, APBA2_2, Q99767
T2 sequence (Q99767 654-744, limits assumed, looked up): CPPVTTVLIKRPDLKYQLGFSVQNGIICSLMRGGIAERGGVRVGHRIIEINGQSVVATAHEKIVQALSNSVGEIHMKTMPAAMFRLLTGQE

[3] = target: LNX1_2, Q8TBB1
Chain of LNX1_2, Q8TBB1 (Q8TBB1 371-470): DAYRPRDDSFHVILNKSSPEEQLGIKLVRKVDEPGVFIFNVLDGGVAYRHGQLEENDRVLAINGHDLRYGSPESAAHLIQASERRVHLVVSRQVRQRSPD

[4] = target: NHERF4_4, Q86UT5
Chain of NHERF4_4, Q86UT5 (Q86UT5 464-550): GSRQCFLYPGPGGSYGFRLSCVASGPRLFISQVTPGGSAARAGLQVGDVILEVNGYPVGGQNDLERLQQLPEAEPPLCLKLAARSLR

[5] = target: T3, LNX2_3, Q8N448
T3 sequence (Q8N448 463-564, limits assumed, looked up): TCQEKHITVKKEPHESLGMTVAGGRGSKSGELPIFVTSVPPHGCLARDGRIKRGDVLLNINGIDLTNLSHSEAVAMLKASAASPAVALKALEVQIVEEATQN

[6] = target: T4, MPDZ_12, O75970
T4 sequence (O75970 1857-1958, limits assumed, looked up): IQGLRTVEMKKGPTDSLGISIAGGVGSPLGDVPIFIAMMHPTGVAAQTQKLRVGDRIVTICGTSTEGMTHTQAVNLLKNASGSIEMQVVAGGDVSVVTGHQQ

[7] = target: CASK, O14936
Chain of CASK, O14936 (O14936 487-570): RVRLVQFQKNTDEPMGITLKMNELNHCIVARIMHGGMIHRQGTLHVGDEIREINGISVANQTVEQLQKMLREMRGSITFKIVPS

[8] = target: Inadl_9, Q8NI35
Chain of Inadl_9, Q8NI35 (Q8NI35 1530-1615): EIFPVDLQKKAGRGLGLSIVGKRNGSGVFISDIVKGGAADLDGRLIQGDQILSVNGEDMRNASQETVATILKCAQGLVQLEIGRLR

[9] = target: GRID2IP_2, A4D2P6
Chain of GRID2IP_2, A4D2P6 (A4D2P6 272-370): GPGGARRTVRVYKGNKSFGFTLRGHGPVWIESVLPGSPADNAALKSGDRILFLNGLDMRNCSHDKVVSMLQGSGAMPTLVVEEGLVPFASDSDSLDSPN

[10] = target: T5, SIPA1L2, Q9P2F8
T5 sequence (Q9P2F8 945-1036, limits assumed, looked up): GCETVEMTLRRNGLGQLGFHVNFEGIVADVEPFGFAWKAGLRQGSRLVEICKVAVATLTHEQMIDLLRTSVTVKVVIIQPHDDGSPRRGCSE

[11] = target: T6, GRIP1_7, Q9Y3R0
T6 sequence (Q9Y3R0 999-1096, limits assumed, looked up): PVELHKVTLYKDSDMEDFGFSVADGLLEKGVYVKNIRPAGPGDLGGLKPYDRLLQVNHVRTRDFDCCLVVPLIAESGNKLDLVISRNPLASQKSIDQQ

[12] = target: Inadl_6, Q8NI35
Chain of Inadl_6, Q8NI35 (Q8NI35 1058-1167): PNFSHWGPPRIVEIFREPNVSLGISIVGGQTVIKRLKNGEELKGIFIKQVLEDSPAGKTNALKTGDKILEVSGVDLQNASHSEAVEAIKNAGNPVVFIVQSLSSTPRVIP

[13] = target: T7, GRIP1_2, Q9Y3R0
T7 sequence (Q9Y3R0 145-248, limits assumed, looked up): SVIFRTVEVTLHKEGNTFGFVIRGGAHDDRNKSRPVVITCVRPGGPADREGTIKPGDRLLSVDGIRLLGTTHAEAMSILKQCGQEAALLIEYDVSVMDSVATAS

[14] = target: MAGI2_2, Q86UL8
Chain of MAGI2_2, Q86UL8 (Q86UL8 410-522): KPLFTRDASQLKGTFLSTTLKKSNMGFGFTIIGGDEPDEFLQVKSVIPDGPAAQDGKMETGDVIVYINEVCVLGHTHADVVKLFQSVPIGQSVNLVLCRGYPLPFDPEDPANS

[15] = target: GRIP2_4, Q9C0E4
Chain of GRIP2_4, Q9C0E4 (Q9C0E4 446-548): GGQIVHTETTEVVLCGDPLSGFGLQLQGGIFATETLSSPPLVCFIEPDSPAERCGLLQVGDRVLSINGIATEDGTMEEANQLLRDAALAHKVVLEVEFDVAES

[16] = target: MAGI2_5, Q86UL8
Chain of MAGI2_5, Q86UL8 (Q86UL8 915-1017): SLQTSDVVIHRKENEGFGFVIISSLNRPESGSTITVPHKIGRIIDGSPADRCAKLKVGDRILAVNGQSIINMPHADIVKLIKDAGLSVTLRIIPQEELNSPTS

[17] = target: LIMK2, P53671
Chain of LIMK2, P53671 (P53671 143-248): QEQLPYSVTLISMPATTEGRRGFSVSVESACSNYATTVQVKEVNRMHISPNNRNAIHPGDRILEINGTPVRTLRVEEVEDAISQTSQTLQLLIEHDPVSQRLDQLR

[18] = target: ARHGEF12, Q9NZN5-2
Chain of ARHGEF12, Q9NZN5-2 (Q9NZN5 other isoform, or with tags, fused parts or gaps): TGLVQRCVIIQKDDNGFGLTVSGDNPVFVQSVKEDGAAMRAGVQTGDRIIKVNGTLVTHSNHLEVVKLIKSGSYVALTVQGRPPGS

[19] = target: GRID2IP_1, A4D2P6
Chain of GRID2IP_1, A4D2P6 (A4D2P6 1-87): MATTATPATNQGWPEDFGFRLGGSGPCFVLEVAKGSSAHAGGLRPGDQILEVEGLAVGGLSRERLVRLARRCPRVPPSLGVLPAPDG

[20] = target: IL16_1, Q14005
Chain of IL16_1, Q14005 (Q14005 210-306): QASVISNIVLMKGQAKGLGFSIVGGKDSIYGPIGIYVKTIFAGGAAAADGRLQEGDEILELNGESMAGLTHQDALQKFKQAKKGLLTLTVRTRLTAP

[21] = target: MAGI1_1, Q96QZ7
Chain of MAGI1_1, Q96QZ7 (Q96QZ7 1-106): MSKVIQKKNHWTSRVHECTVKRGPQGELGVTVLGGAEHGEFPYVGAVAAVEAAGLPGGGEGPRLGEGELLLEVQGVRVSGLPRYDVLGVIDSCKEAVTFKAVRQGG

[22] = target: PDLIM1, O00151
Chain of PDLIM1, O00151 (O00151 1-87): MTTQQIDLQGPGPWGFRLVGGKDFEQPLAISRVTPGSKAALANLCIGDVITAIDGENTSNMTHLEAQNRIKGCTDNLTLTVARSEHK

[23] = target: T8, DFNB31_1, Q9P202
T8 sequence (Q9P202 135-233, limits assumed, looked up): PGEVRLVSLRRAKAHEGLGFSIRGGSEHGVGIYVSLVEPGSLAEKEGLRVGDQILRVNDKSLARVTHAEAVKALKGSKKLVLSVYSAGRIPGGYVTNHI

[24] = target: T9, NHERF3_3, Q5T2W1
T9 sequence (Q5T2W1 238-333, limits assumed, looked up): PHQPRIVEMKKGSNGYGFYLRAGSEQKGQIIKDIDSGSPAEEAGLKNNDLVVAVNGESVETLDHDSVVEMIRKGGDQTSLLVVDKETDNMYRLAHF

[25] = target: T10, CARD11, Q9BXL7
T10 sequence (Q9BXL7 662-765, limits assumed, looked up): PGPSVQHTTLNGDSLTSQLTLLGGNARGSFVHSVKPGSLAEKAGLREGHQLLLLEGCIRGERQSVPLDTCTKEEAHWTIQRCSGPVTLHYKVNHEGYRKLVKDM

[26] = target: FRMPD2_2, Q68DX3
Chain of FRMPD2_2, Q68DX3 (Q68DX3 944-1038): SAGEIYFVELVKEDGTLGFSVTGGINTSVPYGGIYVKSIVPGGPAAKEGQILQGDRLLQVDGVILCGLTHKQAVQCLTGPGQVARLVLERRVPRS

[27] = target: T11, RADIL, Q96JH8
T11 sequence (Q96JH8 971-1071, limits assumed, looked up): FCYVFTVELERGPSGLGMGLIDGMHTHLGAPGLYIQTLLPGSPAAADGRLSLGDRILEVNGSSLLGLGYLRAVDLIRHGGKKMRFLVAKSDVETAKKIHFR

[28] = plain residues with an end cap or a label only (N-terminal biotin on a linker: ado-ado)
[29] = plain residues with an end cap or a label only (N-terminal biotin on a linker: ttds)

FVHPILQSAV [PRKCA, P17252]
pKd [1, 28]: below the threshold | pKd [2, 28]: below the threshold | pKd [3, 28]: below the threshold | pKd [4, 28]: below the threshold | pKd [5, 28]: below the threshold | pKd [6, 28]: below the threshold | pKd [7, 28]: below the threshold | pKd [8, 28]: below the threshold | pKd [9, 28]: 4.36 | pKd [10, 28]: below the threshold | pKd [11, 28]: below the threshold | pKd [12, 28]: below the threshold | pKd [13, 28]: below the threshold | pKd [14, 28]: 3.9 | pKd [15, 28]: below the threshold | pKd [16, 28]: 4.73 | pKd [17, 28]: below the threshold | pKd [18, 28]: 4.22 | pKd [19, 28]: below the threshold | pKd [20, 28]: 4.33 | pKd [21, 28]: below the threshold | pKd [22, 28]: below the threshold | pKd [23, 28]: 4.29 | pKd [24, 28]: below the threshold | pKd [25, 28]: below the threshold | pKd [26, 28]: 3.73 | pKd [27, 28]: 3.57

LCALPKVTTV [AGMAT, Q9BSE5]
pKd [1, 29]: below the threshold | pKd [2, 29]: below the threshold | pKd [3, 29]: 4.42 | pKd [4, 29]: below the threshold | pKd [5, 29]: below the threshold | pKd [6, 29]: below the threshold | pKd [7, 29]: below the threshold | pKd [8, 29]: 3.52 | pKd [9, 29]: 4.01 | pKd [10, 29]: below the threshold | pKd [11, 29]: below the threshold | pKd [12, 29]: 3.88 | pKd [13, 29]: below the threshold | pKd [14, 29]: 4.18 | pKd [15, 29]: below the threshold | pKd [16, 29]: 3.63 | pKd [17, 29]: below the threshold | pKd [18, 29]: 4.67 | pKd [19, 29]: below the threshold | pKd [20, 29]: 4.06 | pKd [21, 29]: below the threshold | pKd [22, 29]: below the threshold | pKd [23, 29]: below the threshold | pKd [24, 29]: below the threshold | pKd [25, 29]: below the threshold | pKd [26, 29]: 3.72 | pKd [27, 29]: 4.59

TETASVCTKV [SLC23A1, Q9UHI7]
pKd [1, 28]: below the threshold | pKd [2, 28]: below the threshold | pKd [3, 28]: below the threshold | pKd [4, 28]: 3.89 | pKd [5, 28]: below the threshold | pKd [6, 28]: 3.82 | pKd [7, 28]: below the threshold | pKd [8, 28]: below the threshold | pKd [9, 28]: 3.98 | pKd [10, 28]: below the threshold | pKd [11, 28]: below the threshold | pKd [12, 28]: below the threshold | pKd [13, 28]: below the threshold | pKd [14, 28]: 3.48 | pKd [15, 28]: below the threshold | pKd [16, 28]: 4.46 | pKd [17, 28]: below the threshold | pKd [18, 28]: 3.88 | pKd [19, 28]: 3.97 | pKd [20, 28]: below the threshold | pKd [21, 28]: below the threshold | pKd [22, 28]: below the threshold | pKd [23, 28]: 4.18 | pKd [24, 28]: 3.7 | pKd [25, 28]: below the threshold | pKd [26, 28]: 3.93 | pKd [27, 28]: 3.96

QFQYAKESYI [TAGAP, Q8N103]
pKd [1, 29]: below the threshold | pKd [2, 29]: below the threshold | pKd [3, 29]: below the threshold | pKd [4, 29]: below the threshold | pKd [5, 29]: below the threshold | pKd [6, 29]: below the threshold | pKd [7, 29]: below the threshold | pKd [8, 29]: 3.5 | pKd [9, 29]: 3.72 | pKd [10, 29]: below the threshold | pKd [11, 29]: below the threshold | pKd [12, 29]: 4.06 | pKd [13, 29]: below the threshold | pKd [14, 29]: 3.5 | pKd [15, 29]: below the threshold | pKd [16, 29]: below the threshold | pKd [17, 29]: below the threshold | pKd [18, 29]: 3.91 | pKd [19, 29]: below the threshold | pKd [20, 29]: 4.65 | pKd [21, 29]: below the threshold | pKd [22, 29]: below the threshold | pKd [23, 29]: 4.24 | pKd [24, 29]: below the threshold | pKd [25, 29]: below the threshold | pKd [26, 29]: 4.33 | pKd [27, 29]: 3.69

SRRPRTETQV [HPV31-E6, P17386]
pKd [1, 29]: below the threshold | pKd [2, 29]: below the threshold | pKd [3, 29]: below the threshold | pKd [4, 29]: below the threshold | pKd [5, 29]: below the threshold | pKd [6, 29]: below the threshold | pKd [7, 29]: below the threshold | pKd [8, 29]: below the threshold | pKd [9, 29]: below the threshold | pKd [10, 29]: below the threshold | pKd [11, 29]: below the threshold | pKd [12, 29]: below the threshold | pKd [13, 29]: below the threshold | pKd [14, 29]: 6.38 | pKd [15, 29]: below the threshold | pKd [16, 29]: 3.89 | pKd [17, 29]: below the threshold | pKd [18, 29]: 3.86 | pKd [19, 29]: below the threshold | pKd [20, 29]: below the threshold | pKd [21, 29]: below the threshold | pKd [22, 29]: below the threshold | pKd [23, 29]: 3.55 | pKd [24, 29]: below the threshold | pKd [25, 29]: below the threshold | pKd [26, 29]: below the threshold | pKd [27, 29]: below the threshold

From publication PMC9482650, “Quantitative fragmentomics allow affinity mapping of interactomes” (Nature Communications, 2022)
